According to patent publication US20230203142A1, “TREATMENT OF METABOLIC DISORDERS THROUGH THE TARGETING OF A NOVEL CIRCULATING HORMONE COMPLEX” (The President and Fellows of Harvard College, priority 2020, published 2023):

Target: T1, recombinant ADK (Homo sapiens, UniProt P55263)
T1 construct: purchased Novus Biologicals or R&D Systems NBP1-44382 or 8024-AK-025
Assay: Recombinant kinase activity assay, ADK (Kinase-Glo)
Type: biochemical
Description: An on-bead kinase assay was developed to measure the activity of endogenous NDPK and ADK pulled down from serum using a-Ab or c-Ab conjugated beads. Both NDPK and ADK are bi-directional kinases that will produce ATP or ADP depending on the substrates provided (FIGS. 4B-C). Kinase activity assays were performed in 384-well plates in reaction buffer (PBS with 0.1% BSA, 0.01% F-127, 5 mM MgCl2). Experiments with recombinant proteins were performed at final concentrations of 40 μg/ml for ADK and FABP4, and 20 ug/ml for NDPK, and a reaction volume of 10 μl. Antibodies were used at a final concentration of 80 ug/ml. Substrates were added in equimolar ratios depending on the kinase being assayed and the direction of the reaction in serial dose responses, with the highest concentration of 5 μM. Proteins and substrates were incubated for 1 hr at room temperature, and ADP and ATP production were monitored using ADP-Glo and Kinase-Glo kits, respectively, according the manufacturer instructions (V6930 and V6711 Promega, USA). Luminescence was quantified using a SpectraMax Paradigm plate reader 30 min after the addition of substrate. Consistent with the MS results, ADK activity, as measured by generation of ATP, was specifically observed in samples pulled down with a-Ab but not c-Ab (FIG. 5A). […] To test this possibility, the ATP and ADP generating activity of recombinant ADK was assessed in the presence of the proposed complex components.

T1 sequence (P55263 whole entry): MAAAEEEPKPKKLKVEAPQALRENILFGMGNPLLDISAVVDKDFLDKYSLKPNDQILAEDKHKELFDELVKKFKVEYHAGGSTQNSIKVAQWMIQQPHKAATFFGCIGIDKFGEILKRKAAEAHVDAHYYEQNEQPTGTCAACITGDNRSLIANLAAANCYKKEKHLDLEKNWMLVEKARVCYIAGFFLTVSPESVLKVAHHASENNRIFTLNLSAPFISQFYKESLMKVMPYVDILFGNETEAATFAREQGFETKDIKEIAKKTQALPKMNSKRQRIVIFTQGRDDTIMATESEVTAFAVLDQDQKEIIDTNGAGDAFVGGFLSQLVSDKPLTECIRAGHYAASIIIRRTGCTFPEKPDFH

- ADK activity to produce ATP (added to the NDPK-ADK/FABP4 complex, compared to the complex alone): no effect
- ADK activity to generate ATP (recombinant ADK plus the added component): no effect
B1: a-Ab: monoclonal antibody previously reported as CA33; heavy chain SEQ ID NO 446, light chain SEQ ID NO 447; binds FABP4 and NDPK (antibody, listed as Homo sapiens)
heavy: QSVEESGGRLVTPGTPLTLTCTVSGFSLSTYYMSWVRQAPGKGLEWIGIIYPSGSTYCASWAKGRFTISKASTTVDLKITSPTTEDTATYFCARPDNDGTSGYLSGFGLWGQGLVTVSSAKTTPPSVYPLAPGSAAQTNSMVTLGCLVKGYFPEPVTVTWNSGSLSSGVHTFPAVLQSDLYTLSSSVTVPSSTWPSETVTCNVAHPASSTKVDKKIVPRDC
light: DVVMTQTPASVSEPVGGTVTIKCGASEDISRYLVWYQQKPGQPPKRLIYKASTLASGVPSRFKGSGSGTDFTLTISDLECDDAATYYCQCTYGTYAGSFFYSFGGGTEVVVERTDAAPTVSIFPPSSEQLTSGGASVVCFLNNFYPKDINVKWKIDGSERQNGVLNSWTDQDSKDCTYSMSSTLTLTKDEYERHNSYTCEATHKTSTSPIVKSFNRNEC
